From PMC3241658

T1: TWINKLE (UniProt Q96RR1 32-684)
T1 sequence: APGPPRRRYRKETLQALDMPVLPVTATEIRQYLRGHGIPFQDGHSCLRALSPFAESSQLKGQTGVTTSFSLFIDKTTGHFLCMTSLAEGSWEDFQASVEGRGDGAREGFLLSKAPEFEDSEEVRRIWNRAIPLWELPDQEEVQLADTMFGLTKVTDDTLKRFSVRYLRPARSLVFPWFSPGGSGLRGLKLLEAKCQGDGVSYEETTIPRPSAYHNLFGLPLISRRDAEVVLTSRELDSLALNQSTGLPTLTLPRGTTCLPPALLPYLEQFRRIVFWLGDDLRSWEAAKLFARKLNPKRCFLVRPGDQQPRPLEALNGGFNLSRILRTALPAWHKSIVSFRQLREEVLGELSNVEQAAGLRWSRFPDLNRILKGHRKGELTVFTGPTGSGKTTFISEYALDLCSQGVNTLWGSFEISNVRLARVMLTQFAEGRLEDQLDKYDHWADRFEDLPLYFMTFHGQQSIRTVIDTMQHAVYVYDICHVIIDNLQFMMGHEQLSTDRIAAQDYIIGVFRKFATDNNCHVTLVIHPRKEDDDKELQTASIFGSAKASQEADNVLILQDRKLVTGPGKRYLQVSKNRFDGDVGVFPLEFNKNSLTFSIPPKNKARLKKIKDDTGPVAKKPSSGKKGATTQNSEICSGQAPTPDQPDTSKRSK

B1: closed circular ssDNA (100 nt) (ssDNA)
DNA: GAGGGGTATGTTTTTTTTTTTTTTTTTTTTTTTTTTTTTTTTTTTTTTTTTTTTTTTTTTTTTTTTTTTTTTTTTTTTTTTTTTTTTTTTCATACCCCTAT
B2: linear dsDNA (100 bp) (dsDNA)
DNA 1: GATTTTTTTTTTTTTTTTTTTTTTTTTTTTTTTTTTTTTCATACCCCTATGAGGGGTATGTTTTTTTTTTTTTTTTTTTTTTTTTTTTTTTTTTTTTTAT
DNA 2: ATAAAAAAAAAAAAAAAAAAAAAAAAAAAAAAAAAAAAAACATACCCCTCATAGGGGTATGAAAAAAAAAAAAAAAAAAAAAAAAAAAAAAAAAAAAATC
B3: linear ssDNA (100 nt) (ssDNA)
DNA: B2 DNA 1

Molecular target: T1, TWINKLE
Assay: EMSA

| Binder | binding result |
| --- | --- |
| B1 | binds |
| B2 | binds |
| B3 | binds |
